The DeepSol protein solubility set

Assay: soluble on expression in E. coli; label from the status in PepcDB or PDB records

| Sequence | soluble on expression in E. coli |
| --- | --- |
| MTITRQDAWTQDEDLLLAEVVLRHIREGGTQLSAFEEVGRALTRTAAACGFRWNSYVRKQYQSGIELAKKQRKELRKQIGVHSVNMPNSMKQTASASSEGKRDLSIQDVIQFLEQFKETPSAQEFQLEREKLKEQIQSLQKELEDLRSENQTLRNQLEMTEEDYKALIDIMDRARKMVVSKEDGRMKKAAQETLEHHHHHH | not soluble |
| MGSDKIHHHHHHMLTDHRCTKYTDCSSCSFYQRDIFKYRLYPKGYVIPQTRCMQNMVFFLVKGEIWLNSEEHPDTTFRGGQFVLQPIGSKVECKVLDYTECIIYLFERPQNICDNRFNKGISIVENERQQPIVMTMVPPIQLFIEGMKLYLNDDLRCSGLMQAKRSEMVYLLNCYYPIKELAAFYAPIYRYSHSFQYFVMQNYQKAKDVETFAQLGGYSVPTFRRIFKDTFGEPAYQWMLKRKCQDIHNDLIMTELSISEICYKYGFESLSNFSHFCRANFGQSPRSVRSLKDENT | not soluble |
| MAHHHHHHMAHAVGFACPHMADPSMVRNVIGVRGRALSVVVDSTNAAMAARKHYDCDDIYGMELQDQNGDGSTLESHWSQRHAKDELMAPIGGAGDHTELTLAAFAELGCMRVNWKLAEPMGWGKKSGCELLQSKRSAPNMSEYSHIFCNRDEVVERCASDRYSRGFCRRSIIEFSKQHSMDSCPIIDPAMDVRDLEAVFEKEEYLSARPGDKPSSWCLDTLPTNTTDARYPEETYLSAATQAELKCLGMQVHLKNPEKRNVRWLPCTEEETITWDTPPYNKENVICPKYAEVCTISATGGSVIPVVSWDGEARVWSRTVPPASTGQGLPGASVPVAESIDPGRGTHTKDVVTAIPERNLLLQGPWRLSVLLLLLE | soluble |
| MDYLVKALAYDGKVRAYAARTTDMVNEGQRRHGTWPTASAALGRTMTASLMLGAMLKGDDKLTVKIEGGGPIGAIVADANAKGEVRAYVSNPQVHFDLNEQGKLDVRRAVGTNGTLSVVKDLGLREFFTGQVEIVSGELGDDFTYYLVSSEQVPSSVGVGVLVNPDNTILAAGGFIIQLMPGTDDETITKIEQRLSQVEPISKLIQKGLTPEEILEEVLGEKPEILETMPVRFHCPCSKERFETAILGLGKKEIQDMIEEDGQAEAVCHFCNEKYLFTKEELEGLRDQTTR | soluble |
| MNNSKTNQQMNTSMGYPLTVYDECNKFQLIVPTLDANIMLWCIGQLSLLNDSNGCKHLFWQPNDKSNVRILLNNYDYGHLFKYLQCQRKCSVYIGEGTLKKYNLTISTSFDNFLDLTPSEEKESLCREDAHEDPVSPKAGSEEEISPNSTSNVVVSRECLDNFMKQLLKLEESLNKLELEQKVTNKEPNHRISGTIDIPEDRSELVNFFTELKTVKQLEDVFQRYHDYERLSQECDSKTEIASDHSKKETKIEVEPPNERSLQITMNQRDNSLYFQLFNNTNSVLAGNCKLKFTDAGDKPTTQIIDMGPHEIGIKEYKEYRYFPYALDLEAGSTIEIENQYGEVIFLGKYGSSPMINLRPPSRLSAESLQASQEPFYSFQIDTLPELDDSSIISTSISLSYDGDDNEKALTWEEL | soluble |
| MQTSLRAPTLEKVSSRPRGSRRRSRKTFTAKLTSPTFRRWSSTEKWTVASREIGSARKRFCSTRTPGAAIHSSNRSRSALRYDHIDHRALARKSPHLMPPTFIKEEIMDDELDEVKEEVVSVGEAALPTPKVELNMDHPEKDLIISISVYLGYTRTLQYHEIRLGRLMKITDRLELTGDHTLRDLKNAFSCPIDFSFSDDFSEKKPSFKDMAKNKWPSTMFFIHDTDESHVNVEFPRRLVERNFRRIACDTCKEASAHWMIVDHDNLLPNSPGYLCSSCYKEFCFDVNGNKVCQFKAVPYCDRKDIGDGRQFFTELDL | not soluble |
| MAIVKKKKVSAASKAATEKPEVKKAVKRPVAETEAVTPKKKKLVKKVKKSAKKAHEEEPIEQVEKLQLIDDDEDGLEGLSFPGSDDEDLRDDYSDDDSDAGDHLPIEKKSAALDKQKEKIIAEGEEELQLNIANQATFELPTVEEIENEMKSVPNLEIVKQRIADVIQVLGDFKNRRDPQKSRENYVEVLKKDLCSQYGYNDYLMGKFMDLFPNGAELLEFLEANDNPRPVTIRANSLKVKRRDLAKNLINRGMNVDPAADWTKVGLVVYDSQVPVGATPEYLAGHYMIQGLNSLLPVMALAPQPGDRVLDMCSAPGGKTSHIAALMKNSGVLFANDANFTRCRAIIGNLHRLGVNNTVVCNLGGEEFSKIRPNGFDRILLDAPCSGTGVIWKDQSVKTSKDSQDVQRRHTMQRQLILSALDSLDANSPNGGYLVYSTCSVLVEENEAVVNFLLERRHCELVPTGLSIGVDGYTRFRDYRFHPSLSMTKRYYPHVHNIDGFYVAKIKKLSNAKMSKQGVMEKEKEKAAQKSQNKKNKAEAEASESSDDEEEKKNGVEVNGQKKPAKKQQQKKQKADGDDSDDDNNAPMKNIGSGARANKKRRNQKKAAEKQAAVKEDDGFNTVGNVKRAKKPTQFKSKVPKRAAARTGAKSVKNRRKKMLAKQQ | not soluble |
| MAHHHHHHMPIHQYEGWSYERLRQQRNRAHFLLEDPYRYVTVLLISKPGRPEELKCIDSPCYHAAGPLGEGDIVEIEDLLCLRCPWHRYLVNIENGEEILLRVDPASAQGAGIVGRQAALPTYPMHFTDPSAEGVTVVHGEKVQRVHRAWLEEATGILSIEVAEEAVMRQHPVKSDKPAGNVKNGGICMQIFDIKLRGLDKL | not soluble |
| MGSDKIHHHHHHMPFLLSGHLSDQSCKAGTLPYKIRIVLILFLCPHMCLTNDEGSAVPATDLAAHQIHILYTDHHGWLYNWLRHKLGNACDAADIAQDTFMRILTRQQPVHLNEPRAYLSTIAHGLVIDHWRRRELERAWLETLASLPEPEAPAPETRLIFLEALIEIDRLLDSLKPRVRTTFLLAQLDGLTCPQIAERLGVSLSTVERYITKALRSCYMLRFEP | not soluble |
| MSHENQENYDDYNGDHDNKYDQQYDESSRGDDFGGRGRGFNGPPGGAGSFFGVPPAARGRGGPGMAPPGFAGRGRGFATPGMSSGFAPRGRGMPPGRGGYMPPYRGGYGVAPNGGPGAYGGPYNGGPGAYGAQAPGPNPQDQEQRLKRLSGCEEGQELWVETETAEGKKYFYHPVNRNTIWERPQNAKIVTQPELAQLIHRATEEEKNREERMPHGQIPQNPDDAWNEFNAPDGRKYYFNSITQENTWEKPKALIDQENGGGASPEPVQSAAIAEAQAKAQAALAAFMAQQKTSSNGGGGMPLSKAQASGAAAAAAVNAEAAKKKDSTRPISSTPVSGTPWCVVWTGDDKVFFYNPSTKCSVWERPPDTYGREDVDKLVQNPPSPKAEEENNQSKKESESESESDEDGPPKAKKSRAEKKKEALIAAQKKEKERPRQMLQKPVDPAIEAEMQAAKEREKVPLEERLKQFKEMLEEKNVSTSSTFEKELSKIVFDKRYLSLGATERRACFDAFCREKIESEKAERRKRVKEAKEEFQKLLAECELNGRSSYSSFTSKFGKDPRYKAVERNRDREDAFNDFVGELHKKEKDEKRAKKEKLKAAFVKLLEEQTGLTRKSKWSTTKKTLEDEERYIALDSSSTRESLFREFVANLGDETASDIEEEQEREKRLAAQTAIANRQKEVEAELGNQLRERTKESEKQKMGEHEDTYRNLLIDLIKSTENSWHEARRILRKDERYANCDMLDKTRKESLFDDHIKSLERKRREAFFQVLDNHEKITPMMRWRDAKKIIQDEEETFVKIASNSERKVERDFRDWQERRHDHLTDEFKEMLSETKIITHKSKKLMEEGEQHMDILSVLENDKRWVRMTAMSASERDRMLEDHIENLGRKGTPPPPTQQERDRRKQ | soluble |
| MDLIHEKVFVNRYHYDVRNHEWEKENGVPKTNVEVTFQLHHKDKEANNTSVVAVLQFMIVRDEFVISGIVSQMNHIQNRIVNNPKDFSQEEAEYLAAPLLDTLQRLTYEVTEIALDRPGINLEF | not soluble |
| MGHHHHHHSHVGFDTGFMQFFRVREKSMTMAELLIGSRKTYGLNLIGGVRRDILKEQRLQTLKLVREMRADVSELVEMLLATPNMEQRTQGIGILDRQIARDLRFDHPYADYGNIPKTLFTFTGGDVFSRVMVRVKETFDSLAMLEFALDNMPDTPLLTEGFSYKPHAFALGFVEAPRGEDVHWSMLGDNQKLFRWRCRAATYANWPVLRYMLRGNTVSDAPLIIGSLDPCYSCTDR | not soluble |
